Assay [1] deals with recombinant MCL1 (human) (UniProt Q07820). Kind of assay: fluorescence polarisation; direct FPA: recombinant MCL1 with FITC-peptide, 30 min, 1× PBS pH 7.4; limit of detection of the probe 5 nM.
The target is the same in assay [2]. Kind of assay: fluorescence polarisation; competitive FPA: 50 nM recombinant MCL1, 10 nM F-BAK, titration of unlabeled p73 peptide or p73DBD, 1× PBS pH 7.4.
Assay [3] concerns the target recombinant p73 DBD-TD (amino acids 112–398) (human) (UniProt O15350).

Sequence of recombinant p73 DBD-TD (amino acids 112–398) (human) (O15350 112-398): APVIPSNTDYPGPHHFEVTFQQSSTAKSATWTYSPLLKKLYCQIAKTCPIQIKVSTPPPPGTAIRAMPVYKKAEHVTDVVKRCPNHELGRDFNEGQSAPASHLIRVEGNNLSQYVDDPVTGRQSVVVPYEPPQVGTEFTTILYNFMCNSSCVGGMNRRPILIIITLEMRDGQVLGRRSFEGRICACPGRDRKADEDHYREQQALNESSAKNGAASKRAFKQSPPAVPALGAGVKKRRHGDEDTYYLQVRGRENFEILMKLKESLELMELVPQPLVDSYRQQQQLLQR

“N-terminally labeled FITC-p73_(23mer) peptide”: in the assay with recombinant MCL1 (human) [1], the Kd is below 5 nM.

With “p73_(23mer) peptide (23 amino acids, from the p73 tetramerization domain), unlabeled”, in the assay with recombinant MCL1 (human) [2], the IC50 stood at 982 nM.

As for “recombinant MCL1 (from UniProt Q07820 1-350) (natural protein)”, the decrease in EMSA: binding of 10 μM p73 (DBD-TD) to 1 μM FITC-GADD45 DNA on titration of recombinant MCL1 (10–200 μM), free probe quantified in assay [3] was found to be 27%.

The Kd is the constant that tells how readily two partners part at equilibrium. A word on the IC50: it is the concentration needed to halve the response being measured.

The values are drawn from paper PMC7641127, “MCL1 binds and negatively regulates the transcriptional function of tumor suppressor p73” (Cell Death & Disease, 2020).
